B1: His-PPIL2 241-520 (E. coli, purified) (domain or fragment, UniProt Q13356 241-520, looked up)
chain: YSTGKVSASFTSTAMVPETTHEAAAIDEDVLRYQFVKKKGYVRLHTNKGDLNLELHCDLTPKTCENFIRLCKKHYYDGTIFHRSIRNFVIQGGDPTGTGTGGESYWGKPFKDEFRPNLSHTGRGILSMANSGPNSNRSQFFITFRSCAYLDKKHTIFGRVVGGFDVLTAMENVESDPKTDRPKEEIRIDATTVFVDPYEEADAQIAQERKTQLKVAPETKVKSSQPQAGSQGPQTFRQGVGKYINPAATKRAAEEEPSTSATVPMSKKKPSRGFGDFSSW
notes: source: E. coli BL21, purified (Ni-NTA)

In assay [1] the target is T1, GST-ZNF830 (E. coli, purified) (UniProt Q96NB3 1-372).
T1 construct: ZNF830, full length, GST-tagged (pGEX6T-1); also called GST-tagged ZNF830; source: E. coli BL21, purified (glutathione-Sepharose 4B)
T1 sequence (looked up): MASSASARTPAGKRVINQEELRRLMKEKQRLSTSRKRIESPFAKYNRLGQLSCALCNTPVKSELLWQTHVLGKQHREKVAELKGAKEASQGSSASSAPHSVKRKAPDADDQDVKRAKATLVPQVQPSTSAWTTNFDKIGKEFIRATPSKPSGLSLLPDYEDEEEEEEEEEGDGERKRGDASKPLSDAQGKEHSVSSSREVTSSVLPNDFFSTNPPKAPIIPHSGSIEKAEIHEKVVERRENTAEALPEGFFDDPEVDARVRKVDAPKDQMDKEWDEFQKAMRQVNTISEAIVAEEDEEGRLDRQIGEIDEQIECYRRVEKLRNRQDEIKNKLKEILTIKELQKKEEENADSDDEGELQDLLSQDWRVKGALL
The assay is described as follows: pull-down; GST pull-down with purified GST-ZNF830 (full length or fragments) and His-PPIL2 (full length or fragments) expressed in E. coli; western blot and Coomassie brilliant blue. The following applies: both partners purified. For orientation: In western blotting, separated proteins are transferred to a membrane and probed.

In assay [2] the target is B1. The assay is described as above. The note with it: both partners purified.

The results in this text go back to paper PMC9452783, “PLK1-mediated phosphorylation of PPIL2 regulates HR via CtIP” (Frontiers in Cell and Developmental Biology, 2022).

B1: the binding result in assay [1] is listed as “binds”.

B2: GST-ZNF830 151-372 (E. coli, purified) (domain or fragment, UniProt Q96NB3 151-372, looked up)
chain: SGLSLLPDYEDEEEEEEEEEGDGERKRGDASKPLSDAQGKEHSVSSSREVTSSVLPNDFFSTNPPKAPIIPHSGSIEKAEIHEKVVERRENTAEALPEGFFDDPEVDARVRKVDAPKDQMDKEWDEFQKAMRQVNTISEAIVAEEDEEGRLDRQIGEIDEQIECYRRVEKLRNRQDEIKNKLKEILTIKELQKKEEENADSDDEGELQDLLSQDWRVKGALL
notes: source: E. coli BL21, purified (glutathione-Sepharose 4B)
On to B2, for which the binding result in assay [2] is recorded as “binds”.
